These results are taken from patent US20250074943A1 (Amgen, published 2025).

First the molecules themselves.
T1: recombinant DLL3 ectodomain (rhDLL3-Fc) (human, UniProt Q9NYJ7 27-492, biotinylated (NHS-LC-LC-biotin) in the BLI and SPR assays)
T1 construct: also called rDLL3-Fc; recombinant human DLL3 (rDLL3); not shown: Fc part
T1 sequence: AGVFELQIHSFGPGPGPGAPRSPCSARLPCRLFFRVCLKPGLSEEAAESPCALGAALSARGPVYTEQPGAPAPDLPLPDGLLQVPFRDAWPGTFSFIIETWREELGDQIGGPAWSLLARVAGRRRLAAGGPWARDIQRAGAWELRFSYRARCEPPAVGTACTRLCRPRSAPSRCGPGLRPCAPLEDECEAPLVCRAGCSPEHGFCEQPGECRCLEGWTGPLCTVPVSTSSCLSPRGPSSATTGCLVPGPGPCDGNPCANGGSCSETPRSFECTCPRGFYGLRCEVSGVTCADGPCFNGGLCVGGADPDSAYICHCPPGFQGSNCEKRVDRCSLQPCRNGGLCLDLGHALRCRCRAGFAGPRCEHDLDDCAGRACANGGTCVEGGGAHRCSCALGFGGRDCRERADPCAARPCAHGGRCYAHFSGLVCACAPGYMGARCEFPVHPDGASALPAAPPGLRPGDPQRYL

T2: human DLL3 expressed on the surface of cells (human, UniProt Q9NYJ7 27-618)
T2 construct: Stably transfected CHO or HEK293 cells; also called huDLL3; hDLL3
T2 sequence: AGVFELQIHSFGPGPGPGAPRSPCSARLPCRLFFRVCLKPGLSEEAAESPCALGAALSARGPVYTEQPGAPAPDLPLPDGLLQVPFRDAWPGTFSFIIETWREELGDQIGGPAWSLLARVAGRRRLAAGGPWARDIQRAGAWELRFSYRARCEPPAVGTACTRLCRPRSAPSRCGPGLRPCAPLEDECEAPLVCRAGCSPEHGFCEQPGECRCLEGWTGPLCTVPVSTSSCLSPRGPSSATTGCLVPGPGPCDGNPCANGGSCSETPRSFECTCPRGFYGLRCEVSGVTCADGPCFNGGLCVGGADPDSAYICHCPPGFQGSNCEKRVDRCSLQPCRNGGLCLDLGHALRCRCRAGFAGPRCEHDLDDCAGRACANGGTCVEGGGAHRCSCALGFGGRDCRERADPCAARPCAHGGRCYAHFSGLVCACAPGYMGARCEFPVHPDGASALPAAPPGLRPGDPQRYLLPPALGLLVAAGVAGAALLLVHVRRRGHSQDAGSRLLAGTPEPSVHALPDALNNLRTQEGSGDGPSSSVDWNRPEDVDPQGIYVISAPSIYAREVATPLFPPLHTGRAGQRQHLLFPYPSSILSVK

Bridge positions count the residues as written; N and C are the ends. Primed or numbered codes have the meaning given here. Ends that are not written are not given here. Ttds″ = trioxatridecan-succinamic acid linker

The target of one assay is T1, recombinant DLL3 ectodomain (rhDLL3-Fc). The assay is described as follows: phage ELISA on rDLL3-Fc. For orientation: In an ELISA, binding on a coated surface is turned into a signal by an enzyme label.
Method: The pools of phages obtained after each round of selection were tested by Phage-ELISA for their binding to rDLL3-Fc and counter-screened on hIgG-Fc. Briefly, proteins were immobilized on NUNC-Maxisorp ELISA plates. Then the plates were washed and blocked. 100 μl of pre-blocked phages were added to the blocked plate and incubated for 1 hr at room temperature. Anti-M13 HRP conjugated mAb were added and the plates were read on a Multiskan Ascent (Thermo) Elisa reader at A370 nm after the addition of TMB (Sigma).
For the molecule AETVEFWSCVVYGDNWTCSS (not fully specified (bridges); cysteine pairing not given here, not shown: M13 pIII coat protein) [SEQ ID NO 70], the binding result was “binds”.
On to AETVEFWGCNLDWYGWTCWW (not fully specified (bridges); cysteine pairing not given here, not shown: M13 pIII coat protein) [SEQ ID NO 69], for which the binding result was “binds”.
Regarding AETVEFDYCYGDVEEWTCVY (not shown: M13 pIII coat protein) [SEQ ID NO 55], the binding result was “binds”.
The same measure, in the same setting: in the case of AETVEFWGCTGGAWEYTCWW (disulfide 9-18 (inferred); not fully specified (C-terminus), not shown: M13 pIII coat protein) [SEQ ID NO 73] it was “binds”; in that of AETVEFYGCKWDWKGWTCAW (not shown: M13 pIII coat protein) [SEQ ID NO 57], “binds”; in that of AETVEFCRAYSNWFYIC (disulfide 7-17 (inferred); not fully specified (C-terminus), not shown: M13 pIII coat protein) [SEQ ID NO 76], “binds”.
In the case of AETVEFYNCWYKMGWYVCWS (disulfide 9-18 (inferred); not fully specified (C-terminus), not shown: M13 pIII coat protein) [SEQ ID NO 75], the binding result is reported as “binds”.
With AETVEFYGCSVTWGGYTCTW (disulfide 9-18 (inferred); not fully specified (C-terminus), not shown: M13 pIII coat protein) [SEQ ID NO 74], the binding result is recorded as “binds”.
The same measure, in the same setting: then AETVEFYGCWWDAYGSTCTW (not fully specified (bridges); cysteine pairing not given here, not shown: M13 pIII coat protein) [SEQ ID NO 66], with “binds”.
On the same count and under the same terms, in the case of AETVEFETCWYLYGREWCVG (not fully specified (bridges); cysteine pairing not given here, not shown: M13 pIII coat protein) [SEQ ID NO 62] it was “binds”.
Same read-out and setting: in the case of AETVEFWSCQLGSGWWTCAW (not fully specified (bridges); cysteine pairing not given here, not shown: M13 pIII coat protein) [SEQ ID NO 71] it was “binds”.
In the case of AETVEFWGCLGMGYDRTCWW (not fully specified (bridges); cysteine pairing not given here, not shown: M13 pIII coat protein) [SEQ ID NO 64], the binding result is on record as “binds”.
On the same count and under the same terms, in the case of AETVEFYGCRGGDGEWTCVW (not shown: M13 pIII coat protein) [SEQ ID NO 54] it was “binds”.
On the same count and under the same terms, then AETVEFYGCWGNYNDYTCSW (not shown: M13 pIII coat protein) [SEQ ID NO 61], with “binds”; and AETVEFMRCYPWWYGPMCVR (not fully specified (bridges); cysteine pairing not given here, not shown: M13 pIII coat protein) [SEQ ID NO 63], with “binds”.
Turning to AETVEFYGCYGEQEQWTCLW (not shown: M13 pIII coat protein) [SEQ ID NO 59], the binding result is recorded as “binds”.
The same measure, in the same setting: then AETVEFYGCETYSGGWTCLW (not shown: M13 pIII coat protein) [SEQ ID NO 56], with “binds”; and AETVEFRYCTHTQTYVQCQD (not fully specified (bridges); cysteine pairing not given here, not shown: M13 pIII coat protein) [SEQ ID NO 68], with “binds”.
The same measure, in the same setting: in the case of AETVEFWTCWETTEGYGCNW (not fully specified (bridges); cysteine pairing not given here, not shown: M13 pIII coat protein) [SEQ ID NO 72] it was “binds”; in that of AETVEFYGCSVNADGWTCSW (not shown: M13 pIII coat protein) [SEQ ID NO 58], “binds”; in that of AETVEFDGCKGDWYEWTCWW (not shown: M13 pIII coat protein) [SEQ ID NO 53], “binds”.
Same read-out and setting: then AETVEFWTCWTVYGKSSCWD (not fully specified (bridges); cysteine pairing not given here, not shown: M13 pIII coat protein) [SEQ ID NO 65], with “binds”.
Regarding AETVEFYGCDLWKGWTVCGY (not fully specified (bridges); cysteine pairing not given here, not shown: M13 pIII coat protein) [SEQ ID NO 67], the binding result is “binds”.
In the case of AETVEFYGCQYYGWDYTCAW (not shown: M13 pIII coat protein) [SEQ ID NO 60], the binding result is “binds”.

The target in the next assay is T2, human DLL3 expressed on the surface of …. The assay is described as follows: phage cell ELISA/FACS on DLL3-expressing cells.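 Further: phages incubated 1 h at room temperature with cells overexpressing human DLL3, read by flow cytometry fluorescence, then fixed-cell ELISA with anti-M13-HRP at A370 nm, parental cells alongside.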
Method: The pools of phages were also screened for their binding to cells overexpressing human DLL3 on their surface. Cells were detached, counted and re-suspended at 1.8×10⁶ cell/ml in FACS buffer containing 2% FBS. Pre-blocked phages were then added to the cells and incubated for 1 hr at room temperature. […] Cells were then washed and re-suspended into FACS buffer. Fluorescence was acquired using a flow cytometer (FACS Canto/Becton Dickinson).
Phage clones with signal higher than four-fold above the background were further tested for their binding to DLL3 on the surface of cells expressing DLL3 by cell ELISA. Briefly, parental cells and cells overexpressing DLL3 were plated on 96 well plate the day before the assay. The cells were then fixed and washed before the addition of pre-blocked phages as previously described. The cells were then washed and anti-M13-HRP was added. The signal was measured using a Multiskan Ascent (Thermo) ELISA reader at A370 nm.
On to AETVEFWSCVVYGDNWTCSS (not fully specified (bridges); cysteine pairing not given here, not shown: M13 pIII coat protein) [SEQ ID NO 70], for which the binding result was “binds”.
Still for that read-out and setting: then AETVEFWGCNLDWYGWTCWW (not fully specified (bridges); cysteine pairing not given here, not shown: M13 pIII coat protein) [SEQ ID NO 69], with “binds”; and AETVEFDYCYGDVEEWTCVY (not shown: M13 pIII coat protein) [SEQ ID NO 55], with “binds”.
The same measure, in the same setting: then AETVEFWGCTGGAWEYTCWW (disulfide 9-18 (inferred); not fully specified (C-terminus), not shown: M13 pIII coat protein) [SEQ ID NO 73], with “binds”.
Take AETVEFYGCKWDWKGWTCAW (not shown: M13 pIII coat protein) [SEQ ID NO 57]: the binding result was “binds”.
For the molecule AETVEFCRAYSNWFYIC (disulfide 7-17 (inferred); not fully specified (C-terminus), not shown: M13 pIII coat protein) [SEQ ID NO 76], the binding result is recorded as “binds”.
AETVEFYNCWYKMGWYVCWS (disulfide 9-18 (inferred); not fully specified (C-terminus), not shown: M13 pIII coat protein) [SEQ ID NO 75]: the binding result is given as “binds”.
With AETVEFYGCSVTWGGYTCTW (disulfide 9-18 (inferred); not fully specified (C-terminus), not shown: M13 pIII coat protein) [SEQ ID NO 74], the binding result is “binds”.
On the same count and under the same terms, then AETVEFYGCWWDAYGSTCTW (not fully specified (bridges); cysteine pairing not given here, not shown: M13 pIII coat protein) [SEQ ID NO 66], with “binds”.
Still for that read-out and setting: in the case of AETVEFETCWYLYGREWCVG (not fully specified (bridges); cysteine pairing not given here, not shown: M13 pIII coat protein) [SEQ ID NO 62] it was “binds”; in that of AETVEFWSCQLGSGWWTCAW (not fully specified (bridges); cysteine pairing not given here, not shown: M13 pIII coat protein) [SEQ ID NO 71], “binds”; in that of AETVEFWGCLGMGYDRTCWW (not fully specified (bridges); cysteine pairing not given here, not shown: M13 pIII coat protein) [SEQ ID NO 64], “binds”.
In the case of AETVEFYGCRGGDGEWTCVW (not shown: M13 pIII coat protein) [SEQ ID NO 54], the binding result is reported as “binds”.
On the same count and under the same terms, in the case of AETVEFYGCWGNYNDYTCSW (not shown: M13 pIII coat protein) [SEQ ID NO 61] it was “binds”.
Same read-out and setting: then AETVEFMRCYPWWYGPMCVR (not fully specified (bridges); cysteine pairing not given here, not shown: M13 pIII coat protein) [SEQ ID NO 63], with “binds”; and AETVEFYGCYGEQEQWTCLW (not shown: M13 pIII coat protein) [SEQ ID NO 59], with “binds”.
Same read-out and setting: in the case of AETVEFYGCETYSGGWTCLW (not shown: M13 pIII coat protein) [SEQ ID NO 56] it was “binds”; in that of AETVEFRYCTHTQTYVQCQD (not fully specified (bridges); cysteine pairing not given here, not shown: M13 pIII coat protein) [SEQ ID NO 68], “binds”.
On to AETVEFWTCWETTEGYGCNW (not fully specified (bridges); cysteine pairing not given here, not shown: M13 pIII coat protein) [SEQ ID NO 72], for which the binding result was “binds”.
Same read-out and setting: in the case of AETVEFYGCSVNADGWTCSW (not shown: M13 pIII coat protein) [SEQ ID NO 58] it was “binds”; in that of AETVEFDGCKGDWYEWTCWW (not shown: M13 pIII coat protein) [SEQ ID NO 53], “binds”; in that of AETVEFWTCWTVYGKSSCWD (not fully specified (bridges); cysteine pairing not given here, not shown: M13 pIII coat protein) [SEQ ID NO 65], “binds”.
The same measure, in the same setting: then AETVEFYGCDLWKGWTVCGY (not fully specified (bridges); cysteine pairing not given here, not shown: M13 pIII coat protein) [SEQ ID NO 67], with “binds”; and AETVEFYGCQYYGWDYTCAW (not shown: M13 pIII coat protein) [SEQ ID NO 60], with “binds”.

A further assay addresses T1, recombinant DLL3 ectodomain (rhDLL3-Fc). Briefly: SPR (Biacore), biotinylated rhDLL3-Fc on SA chip. Background: SPR reads the build-up and loss of mass on a sensor chip optically.
As a reminder, the Kd is a measure of binding affinity in units of concentration. As a reminder, the koff is the rate constant with which the complex falls apart. The kon is a measure of how fast the partners come together. Ac-AETVEFWWCNGNSENWTCTWGG-{Ttds″-K(PEG3)} (disulfide 9-18 (inferred); also: dimer of two copies, carries PEG4-DBCO, also called PspSP1487) [PepSP1487]: the Kd was determined as 5.5 nM, the off-rate (koff) turned out to be 0.00042 s⁻¹ and the kon came out at 76000 M⁻¹ s⁻¹.
Taken in the same sequence, the figures for Ac-AETVEFWWCNGNSENWTCTWGG-{Ttds″-K(Ttds-Ttds-PEG3)} (disulfide 9-18 (inferred); also: dimer linked via PEG4-DBCO, also called PspSP1489) [PepSP1489] were 3.3 nM, 0.00037 s⁻¹ and 110000 M⁻¹ s⁻¹.
Taken in the same sequence, the figures for Ac-AETVEFWWCNGNSENWTCTWGG-{Ttds-K(PEG4-DBCO)-NH2} (disulfide 9-18 (inferred), also called PspSP1462) [PepSP1462] were 6.3 nM, 0.0014 s⁻¹ and 230000 M⁻¹ s⁻¹.
Taken in the same sequence, the figures for Ac-AETVEFWWCNGNSENWTCTWGG-{Ttds″-K(PEG4-PEG3)} (disulfide 9-18 (inferred); also: dimer linked via PEG4-DBCO, also called PspSP1488) [PepSP1488] were 2.6 nM, 0.00031 s⁻¹ and 120000 M⁻¹ s⁻¹.
